The supplement of paper PMC10567573

B1: INTS3 (parent)
chain: KKREFRFHPIKETVVEEPVDITPY

Variants of: B1
Experiment: protein stability index of a GFP-peptide fusion (GPS, HEK-293T) (PSI 1-6); higher = more stable
Settings: c terminus: a fixed tail appended
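Note: lentivirally expressed fusions sorted by FACS into six bins by GFP to DsRed ratio, PSI derived from sequencing read proportions per bin multiplied by bin number.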

Variant | protein stability index
KKREFRFHPIEETVVEEPVDITPY [K11E] | 2.5
KKREFRFHPICETVVEEPVDITPY [K11C] | 2.15
KKREFRFHPIFETVVEEPVDITPY [K11F] | 2.56
KKREFRFHPIAETVVEEPVDITPY [K11A] | 1.82
KKREFRFHPIDETVVEEPVDITPY [K11D] | 2.72
KKEEFRFHPIKETVVEEPVDITPY [R3E] | 2.74
KKIEFRFHPIKETVVEEPVDITPY [R3I] | 2.25
KKMEFRFHPIKETVVEEPVDITPY [R3M] | 1.43
KKSEFRFHPIKETVVEEPVDITPY [R3S] | 1.66
KKYEFRFHPIKETVVEEPVDITPY [R3Y] | 2.25
KKWEFRFHPIKETVVEEPVDITPY [R3W] | 1.44
KKQEFRFHPIKETVVEEPVDITPY [R3Q] | 1.89
KKGEFRFHPIKETVVEEPVDITPY [R3G] | 1.72
KKAEFRFHPIKETVVEEPVDITPY [R3A] | 1.82
KKNEFRFHPIKETVVEEPVDITPY [R3N] | 1.76
KKLEFRFHPIKETVVEEPVDITPY [R3L] | 1.61
KKHEFRFHPIKETVVEEPVDITPY [R3H] | 2.14
KKFEFRFHPIKETVVEEPVDITPY [R3F] | 1.62
KKDEFRFHPIKETVVEEPVDITPY [R3D] | 2.84
KKVEFRFHPIKETVVEEPVDITPY [R3V] | 1.92
KKKEFRFHPIKETVVEEPVDITPY [R3K] | 2.46
KKTEFRFHPIKETVVEEPVDITPY [R3T] | 1.73
KKPEFRFHPIKETVVEEPVDITPY [R3P] | 1.66
KKCEFRFHPIKETVVEEPVDITPY [R3C] | 2.35

Variant | protein stability index
KKREFRFRPIKETVVEEPVDITPY [H8R] | 4.07
KKREFRFGPIKETVVEEPVDITPY [H8G] | 3.93
KKREFRFWPIKETVVEEPVDITPY [H8W] | 3.41
KKREFRFLPIKETVVEEPVDITPY [H8L] | 3.97
KKREFRFMPIKETVVEEPVDITPY [H8M] | 3.79
KKREFRFDPIKETVVEEPVDITPY [H8D] | 4.47
KKREFRFQPIKETVVEEPVDITPY [H8Q] | 3.45
KKREFRFTPIKETVVEEPVDITPY [H8T] | 3.34
KKREFRFVPIKETVVEEPVDITPY [H8V] | 2.49
KKREFRFYPIKETVVEEPVDITPY [H8Y] | 3.43
KKREFRFSPIKETVVEEPVDITPY [H8S] | 3.54
KKREFRFFPIKETVVEEPVDITPY [H8F] | 3.49
KKREFRFCPIKETVVEEPVDITPY [H8C] | 3.25
KKREFRFAPIKETVVEEPVDITPY [H8A] | 3.27
KKREFRFPPIKETVVEEPVDITPY [H8P] | 4.58
KKREFRFKPIKETVVEEPVDITPY [H8K] | 4.01
KKREFRFNPIKETVVEEPVDITPY [H8N] | 3.96
KKREFRFEPIKETVVEEPVDITPY [H8E] | 3.55
KKREFRFIPIKETVVEEPVDITPY [H8I] | 2.8
KFREFRFHPIKETVVEEPVDITPY [K2F] | 2.08
KLREFRFHPIKETVVEEPVDITPY [K2L] | 1.83
KHREFRFHPIKETVVEEPVDITPY [K2H] | 1.67
KYREFRFHPIKETVVEEPVDITPY [K2Y] | 1.6
